In the assay the target is NPM1 (UniProt P06748). In words: Co-IP of Flag-MST4 with HA-NPM1. The settings on record: reference: Flag-MST4 wild type; sites T178.

Take “MST4 (from UniProt Q9P289) Flag-MST4 T178A”: the “binding against the reference” value is “weaker”.

For the origin of these results see article PMC12436196.
